This note sets out measurements from US20110165081A1 (published 2011).

This test has as its target T1, recombinant soluble PSMA (rsPSMA) (human, UniProt Q04609 44-750).
T1 construct: Oligomeric state not specified for the assay; also called secreted rsPSMA; PSMAECTO
Nature of the test: Biacore SPR, mAb captured by anti-human IgG, rsPSMA in flow. How it is done: It is ideal for screening crude supernatants.
The entire sensor chip surface was conditioned with five injections of conditioning solution (1 M NaCl, 50 mM NaOH) and equilibrated with PBS buffer containing 0.005% polysorbate 20. Two to three thousand resonance units (RU) of biotinylated anti-human IgG antibody (Sigma) were immobilized onto the SA chip followed by an injection of regeneration buffer (glycine-HCl, pH 2.2). […] For each antibody at one concentration, the chip was regenerated and equilibrated.
A general note: Surface plasmon resonance follows binding to a sensor surface in real time, without labels.

T1 sequence (Q04609 44-750): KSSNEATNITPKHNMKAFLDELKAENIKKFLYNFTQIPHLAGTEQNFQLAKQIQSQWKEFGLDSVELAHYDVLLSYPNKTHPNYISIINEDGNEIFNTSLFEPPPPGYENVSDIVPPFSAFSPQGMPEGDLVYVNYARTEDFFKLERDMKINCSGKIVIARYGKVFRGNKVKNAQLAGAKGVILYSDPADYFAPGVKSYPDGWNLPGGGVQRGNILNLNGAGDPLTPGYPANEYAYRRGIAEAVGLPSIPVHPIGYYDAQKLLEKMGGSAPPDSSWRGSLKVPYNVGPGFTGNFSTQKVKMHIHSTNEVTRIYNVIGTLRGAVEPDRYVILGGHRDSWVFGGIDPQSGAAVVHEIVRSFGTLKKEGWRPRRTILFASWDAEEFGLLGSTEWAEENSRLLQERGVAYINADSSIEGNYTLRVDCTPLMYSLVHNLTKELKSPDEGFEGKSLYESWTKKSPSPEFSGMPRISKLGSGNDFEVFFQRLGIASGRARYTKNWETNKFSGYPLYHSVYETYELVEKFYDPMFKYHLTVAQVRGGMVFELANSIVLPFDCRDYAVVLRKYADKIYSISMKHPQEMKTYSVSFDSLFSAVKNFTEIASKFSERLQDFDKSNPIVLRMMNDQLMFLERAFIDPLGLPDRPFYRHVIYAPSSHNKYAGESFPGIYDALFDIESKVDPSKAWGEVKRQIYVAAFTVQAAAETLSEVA

B1: PSMA 10.3 (antibody, V domains shown)
VH: QEQLVESGGGVVQPGRSLRLSCAASGFTFSTYGMHWVRQAPGKGLEWVAVTWHDGSNKYYADSVKGRFTISRDNSKNTLYLQMNSLRAEDTAVYYCARGGVGATYYYYYGMDVWGQGTTVTVSS
VL: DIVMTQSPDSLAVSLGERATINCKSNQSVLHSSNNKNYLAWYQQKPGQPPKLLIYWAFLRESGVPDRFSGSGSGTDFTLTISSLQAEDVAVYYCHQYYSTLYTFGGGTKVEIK
In the case of B1, the Kd stood at 0.193 nM.

In general, Kd refers to the constant that tells how readily two partners part at equilibrium.
